The record followed here is patent US20210214458A1 (ONCOC4, published 2021).

For one assay, the target named is T1, CD24-GST fusion protein.
T1 construct: also called biotinylated CD24-GST; not shown: GST (glutathione S-transferase) fusion partner
Kind of assay: ELISA on coated CD24-GST with expression media, relative to chimeric PP6373 (FIG. 28). As to the method:
To select the best working combination of HuVH and HuVL for CD24 binding, different combinations were co-transfected into 293 cells for 72 hrs. Two ELISAs are then performed with expression media. ELISA 1: a 96 well plate was coated with purified goat-anti-human polyclonal IgG (GAH) and, after blocking, expression media or purified control IgGs were added, and goat-anti-human IgG-HRP was used as detection antibody. ELISA 2: a 96 well plate was coated with CD24-GST protein and, after blocking, expression media or purified control IgGs were added, and goat-anti-human IgG-HRP was used as detection antibody.

For assay [1], the target named is T2, N-SA-CD24 (CD24 stripped of N-glycan and sialic acid modifications) (not fully specified; N-glycans and sialic acid removed; O-glycans present; biotinylated in the Jurkat bispecific assays).
T2 construct: also called SA-N-CD24; SA-N-
T2 chain: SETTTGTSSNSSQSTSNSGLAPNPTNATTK
Kind of assay: ELISA titration on coated Fc removed CD24 treated with NanA + N-glycanase (FIG. 8).

Numbering of substitutions follows the chain as printed.

B1: H1L3 (humanized PP6373) (antibody, V domains shown)
VH: EVQFVESGGGLVQPGGSLKLSCAASGVTFSEAWMDWVRQASGKGLEWVGEIRDKPNSYVTYYAESVKGRFTISRDDSKNTAYLQMNSLKTEDTAVYYCTGAMDYWGQGTLVTVSS
VL: DIVMTQTPLSLSVTIGQPASISCKSSQSLLYSNGKTYLNWLLQKPGQSPKRLIYQVSKLDPGIPDRFSGSGSETDFTLKISRVEAEDVGIYYCMQGSSLPWTFGGGTKVEIKR
notes: Tested as expression medium of co-transfected 293 cells
In the case of B1, in the assay with CD24-GST fusion protein, the binding result is “binds”.

B2: H4L3 (humanized PP6373) (antibody, V domains shown)
VH: B1 VH with G49A, N79S, A81V, V95I
VL: B1 VL
notes: as for B1
Consider B2, for which, in the assay with CD24-GST fusion protein, the binding result is listed as “binds”.

B3: PP6373 (affinity matured chimeric anti-CD24 antibody) (antibody, human IgG1, kappa, V domains shown)
VH: EVKFEESGGGLVQPGGSIKLSCAASGVTFSEAWMDWVRQSPEKGLEWVAEIRDKPNSYVTYYAESVKGRFTISRDDSKSRVYLQMNNLRTEDTGIYYCTGAMDYWGQGTSVTVSS
VL: B1 VL with L42Q, K44R, V88L, V109L
notes: also called P3050.ComF1.2H1; H4069 + L4071
Take B3: the “fold increase of binding against the parental antibody” value in assay [1] was roughly 100 fold.
